The text below walks through data of patent US20100159527, “Polypeptides Having Nucleic Acid Binding Activity and Compositions and Methods For Nucleic Acid Amplification” (LIFE TECHNOLOGIES CORPORATION, published 2010).

Data set [1] has as its target T1, Pae3192 (Pyrobaculum aerophilum).
T1 chain: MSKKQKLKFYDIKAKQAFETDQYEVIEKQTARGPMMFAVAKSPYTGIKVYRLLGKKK
Put plainly: EMSA; not shifted up to 12 uM protein; 170 mM NaCl, 1 mM CaCl2, 25 mM Tris pH 8.0, 40 C, RNasin Plus. As to conditions: tags: expressed from pET16b with N-terminal 10xHis and Factor Xa site. The method, then: (§1) Gel-shift experiments were carried out using 150 nM 42-mer duplex and separate experiments were performed with 0, 1.5, 3, 6 or 12 uM Pae3192 protein. A DNA:DNA duplex was created by annealing DNA oligonucleotides 1a and 2a of Table 1 below. An RNA:RNA duplex was created by annealing RNA oligonucleotides 1b and 2b of Table 1 below. A DNA:RNA duplex was created by annealing DNA oligonucleotide 1a to RNA oligonucleotide 2b of Table 1 below. DNA binding reactions contained 170 mM NaCl, 1 mM CaCl₂ and 25 mM Tris, pH 8.0. Pae3192 was incubated separately with each of the three duplexes for 15 minutes at 40° C. before being run on a 1% agarose gel.
(In general: A gel shift assay detects complexes by their altered migration in electrophoresis.)

Data set [2] has as its target T1, Pae3192. The data set can be described thus: EMSA; 150 nM duplex, 0-12 uM protein; 170 mM NaCl, 1 mM CaCl2, 25 mM Tris pH 8.0, 40 C, 1% agarose. The following applies: tags: expressed from pET16b with N-terminal 10xHis and Factor Xa site. The procedure: as §1

B1: 42-mer RNA:RNA duplex (oligos 1b+2b) (dsRNA)
RNA 1: CAGACUGGAAUUCAAGCGCGAGCUCGAAUAAGAGCUACUGUU
RNA 2: AACAGUAGCUCUUAUUCGAGCUCGCGCUUGAAUUCCAGUCUG
B1: the binding result in the data set with Pae3192 [1] is reported as “no binding”.

B2: 42-mer DNA:DNA duplex (oligos 1a+2a) (dsDNA)
DNA 1: CAGACTGGAATTCAAGCGCGAGCTCGAATAAGAGCTACTGTT
DNA 2: AACAGTAGCTCTTATTCGAGCTCGCGCTTGAATTCCAGTCTG
In the case of B2, in the data set with Pae3192 [2], the binding result is “binds”.

B3: 42-mer DNA:RNA duplex (oligos 1a+2b) (DNA:RNA)
DNA: CAGACTGGAATTCAAGCGCGAGCTCGAATAAGAGCTACTGTT
RNA: AACAGUAGCUCUUAUUCGAGCUCGCGCUUGAAUUCCAGUCUG
Regarding B3, the binding result in the data set with Pae3192 [2] is “binds”.
